Laboratory results: patent US20150203577A1 (Chugai, published 2015)
Changes are numbered by the printed parent chain.

T1: mouse FcγRIII (mouse, UniProt P08508 31-215)
T1 construct: also called mFcγRIII; mFcgRIII
T1 chain: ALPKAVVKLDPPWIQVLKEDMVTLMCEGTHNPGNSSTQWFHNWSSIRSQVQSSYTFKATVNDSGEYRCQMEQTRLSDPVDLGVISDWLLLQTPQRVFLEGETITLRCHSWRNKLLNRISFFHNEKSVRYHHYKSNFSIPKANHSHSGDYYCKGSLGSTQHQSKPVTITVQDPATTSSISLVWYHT

T2: mouse FcγRII (mouse, UniProt P08101 30-210)
T2 construct: also called mFcγRII; mFcgRII
T2 sequence: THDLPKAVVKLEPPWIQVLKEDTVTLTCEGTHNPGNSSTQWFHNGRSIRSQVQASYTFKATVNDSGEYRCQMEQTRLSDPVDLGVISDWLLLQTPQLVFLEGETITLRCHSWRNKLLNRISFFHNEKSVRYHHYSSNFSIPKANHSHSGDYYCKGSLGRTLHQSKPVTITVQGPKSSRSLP

B1: MB306 (antibody, mouse IgG1, kappa)
heavy: QVQLQESGPGLVKPSETLSLTCAVSGHSISHDHAWSWVRQPPGEGLEWIGFISYSGITNYNPSLQGRVTISRDNSKNTLYLQMNSLRAEDTAVYYCARSLARTTAMDYWGEGTLVTVSSAKTTPPSVYPLAPGSAAQTNSMVTLGCLVKGYFPEPVTVTWNSGSLSSGVHTFPAVLQSDLYTLSSSVTVPSSTWPSETVTCNVAHPASSTKVDKKIVPRDCGCKPCICTAPEVEDVFIFPPKPKDVLTITLTPKVTCVVVDISKDDPEVQFSWFVDDVEVHTAQTQPREEQFNSTFRSVSELPIMHQDWLNGKEFKCRVNSAAFPAPIEKTISKTKGRPKAPQVYTIPPPKEQMAKDKVSLTCMITDFFPEDITVEWQWNGQPAENYKNTQPIMDTDGSYFVYSKLNVQKSNWEAGNTFTCSVLHEGLHNHHTEKSLSHSPGK
light: not shown
notes: copies: 2 + 2
B2: MB321 (antibody, mouse IgG1, kappa)
heavy: B1 heavy with T229E, P231E, V236H
light: not shown
notes: copies: 2 + 2
B3: MB309 (antibody, mouse IgG1, kappa)
heavy: B1 heavy with A230D, P231E, E234S
light: not shown
notes: copies: 2 + 2
B4: MB317 (antibody, mouse IgG1, kappa)
heavy: B1 heavy with A230V, V236H
light: not shown
notes: copies: 2 + 2
B5: MB320 (antibody, mouse IgG1, kappa)
heavy: B1 heavy with T229E, P231E, V236E
light: not shown
notes: copies: 2 + 2
B6: MB311 (antibody, mouse IgG1, kappa)
heavy: B1 heavy with A230D, E234S, V236E
light: not shown
notes: copies: 2 + 2
B7: MB319 (antibody, mouse IgG1, kappa)
heavy: B1 heavy with T229E, P231E
light: not shown
notes: copies: 2 + 2
B8: MB316 (antibody, mouse IgG1, kappa)
heavy: B1 heavy with A230V, V236E
light: not shown
notes: copies: 2 + 2
B9: MB322 (antibody, mouse IgG1, kappa)
heavy: B1 heavy with T229E, A230D, P231E
light: not shown
notes: copies: 2 + 2
B10: MB323 (antibody, mouse IgG1, kappa)
heavy: B1 heavy with T229E, A230D, P231E, V236E
light: not shown
notes: copies: 2 + 2
B11: MB308 (antibody, mouse IgG1, kappa)
heavy: B1 heavy with E234S, V236H
light: not shown
notes: copies: 2 + 2
B12: MB313 (antibody, mouse IgG1, kappa)
heavy: B1 heavy with A230V, P231E
light: not shown
notes: copies: 2 + 2
B13: MB312 (antibody, mouse IgG1, kappa)
heavy: B1 heavy with A230D, E234S, V236H
light: not shown
notes: copies: 2 + 2
B14: MB315 (antibody, mouse IgG1, kappa)
heavy: B1 heavy with A230V, P231E, E234S, V236H
light: not shown
notes: copies: 2 + 2
B15: MB326 (antibody, mouse IgG1, kappa)
heavy: B1 heavy with T229E, A230V, P231E, V236H
light: not shown
notes: copies: 2 + 2
B16: MB310 (antibody, mouse IgG1, kappa)
heavy: B1 heavy with A230D
light: not shown
notes: copies: 2 + 2
B17: MB324 (antibody, mouse IgG1, kappa)
heavy: B1 heavy with T229E, A230D, P231E, V236H
light: not shown
notes: copies: 2 + 2
B18: MB307 (antibody)
heavy: B1 heavy with E234S, V236E
light: not shown
notes: copies: 2 + 2
B19: MB318 (antibody, mouse IgG1, kappa)
heavy: B1 heavy with T229E, A230V, P231E
light: not shown
notes: copies: 2 + 2
B20: MB325 (antibody, mouse IgG1, kappa)
heavy: B1 heavy with T229E, A230V, P231E, V236E
light: not shown
notes: copies: 2 + 2
B21: MB314 (antibody, mouse IgG1, kappa)
heavy: B1 heavy with A230V, P231E, E234S, V236E
light: not shown
notes: copies: 2 + 2

Legend:
mouse FcγRIII = biological target: T1, mouse FcγRIII; test: SPR Biacore T200, KD ratio
Text: (§1) The antibody H chain variable region used was the variable region H237 (SEQ ID NO: 1) of the H chain VH3-IgG1 of the anti-IL-6 receptor antibody Fv4-IgG1 described in WO2009/125825. The antibody L chain commonly used was the L chain MRAL-k0 (SEQ ID NO: 2) of the anti-IL-6 receptor antibody tocilizumab. […] The resulting variant group was designated as MB110 variants. These variants were expressed and purified by the method of Reference Example 1 and evaluated for their binding to mFcγRII and mFcγRIII by the method of Reference Example 2 using Biacore T200.
(§2) Each altered antibody was analyzed for its interaction with each Fcγ receptor prepared above using Biacore T100 (GE Healthcare Japan Corp.), Biacore T200 (GE Healthcare Japan Corp.), Biacore A100, or Biacore 4000. The running buffer used was HBS-EP+ (GE Healthcare Japan Corp.). The assay temperature was set to 25° C. The sensor chips used were chips prepared by immobilizing Protein L (ACTIGEN or BioVision) onto Series S Sensor Chip CM5 (GE Healthcare Japan Corp.) or Series S Sensor Chip CM4 (GE Healthcare Japan Corp.) by the amine coupling method.
(§3) In order to calculate the KD value of each altered antibody for FcγR, kinetic analysis was conducted according to the following method: first, the antibody of interest was captured onto any of these chips and allowed to interact with mFcγR diluted with a running buffer. For the obtained sensorgram, the assay results were globally fit into the 1:1 Langmuir binding model using Biacore Evaluation Software to calculate an association rate constant ka (L/mol/s) and a dissociation rate constant kd (1/s). From these values, the dissociation constant KD (mol/L) was calculated.

mouse FcγRII = biological target: T2, mouse FcγRII; test: SPR Biacore T200, KD ratio
Text: as §1, §2, §3

Binder	Relative mFcγRIII-binding activity (MB110 = 1) (mouse FcγRIII) [fold]	relative mFcγRIII-binding activity (mIgG1 = 1) (mouse FcγRIII) [fold]	Relative mFcγRII-binding activity (MB110 = 1) (mouse FcγRII) [fold]	relative mFcγRII-binding activity (mIgG1 = 1) (mouse FcγRII) [fold]
B1	1.05	4.2	5.36	65.8
B2	0.05	0.2	0.28	3.5
B3	0.96	3.9	2.27	27.9
B4	0.12	0.5	0.49	6
B5	0.11	0.4	0.26	3.2
B6	0.52	2.1	1.43	17.6
B7	0.89	3.6	4.07	50
B8	0.31	1.2	0.61	7.4
B9	0.31	1.3	0.75	9.2
B10	0.03	0.1	0.13	1.7
B11	0.67	2.7	2.14	26.3
B12	0.99	4	3.27	40.1
B13	0.87	3.5	4.51	55.4
B14	0.2	0.8	0.48	5.9
B15	0.06	0.2	0.33	4
B16	0.96	3.8	3.16	38.8
B17	0.03	0.1	0.09	1.1
B18	0.55	2.2	0.92	11.3
B19	0.96	3.9	3.29	40.5
B20	0.15	0.6	0.38	4.7
B21	0.27	1.1	0.58	7.1
